Consider one protein from patent US20250002962.

Data set [1] deals with ribosomal protein S1 (rS1), P0AG67.
Data set [2] addresses rS1 domain 5 (S1 D5), P0AG67.
Data set [3] concerns the target rS1 domain 2 R139K (S1 D2 R139K), P0AG67.
Data set [4] deals with rS1 domain 4 (S1 D4), P0AG67.
The target of data set [5] is rS1 domain 3 (S1 D3), P0AG67.
Data set [6] addresses rS1 domain 6 (S1 D6), P0AG67.
Data set [7] deals with rS1 domain 2 (S1 D2), P0AG67.
For data set [8], the target named is rS1 domain 2 R139A (S1 D2 R139A), P0AG67.
The target of data set [9] is rS1 domain 1 (S1 D1), P0AG67.

BSA, P02769, sequence (P02769 25-607): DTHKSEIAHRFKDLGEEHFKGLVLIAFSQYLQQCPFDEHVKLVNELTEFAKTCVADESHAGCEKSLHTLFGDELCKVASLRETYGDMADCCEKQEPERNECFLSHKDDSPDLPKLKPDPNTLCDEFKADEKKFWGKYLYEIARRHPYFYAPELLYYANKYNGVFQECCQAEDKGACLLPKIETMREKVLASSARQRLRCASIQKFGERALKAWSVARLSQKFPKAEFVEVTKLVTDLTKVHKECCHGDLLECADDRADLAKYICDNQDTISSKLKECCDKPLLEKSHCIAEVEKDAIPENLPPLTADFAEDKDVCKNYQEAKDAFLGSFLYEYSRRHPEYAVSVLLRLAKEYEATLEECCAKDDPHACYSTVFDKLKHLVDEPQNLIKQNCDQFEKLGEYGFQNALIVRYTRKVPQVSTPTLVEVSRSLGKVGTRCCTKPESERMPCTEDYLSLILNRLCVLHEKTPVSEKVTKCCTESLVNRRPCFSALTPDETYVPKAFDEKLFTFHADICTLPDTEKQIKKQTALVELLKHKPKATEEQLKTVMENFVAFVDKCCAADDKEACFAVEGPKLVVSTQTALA

B1: ADP-ribosyltransferase ModB from Escherichia virus T4 (cloned ModB with His6 tag) (protein)
chain: MGIINLADVEQLSIKAESVDFQYDMYKKVCEKFTDFEQSVLWQCMEAKKNEALHKHLNEIIKKHLTKSPYQLYRGISKSTKELIKDLQVGEVFSTNRVDSFTTSLHTACSFSYAEYFTETILRLKTDKAFNYSDHISDIILSSPNTEFKYTYEDTDGLDSERTDNLMMIVREQEWMIPIGKYKITSISKEKLHDSFGTFKVYDIEVVELVPRGSLEHHHHHH
With B1, the “RNAylation of rS1 with 32P-labelled 5'-NAD-RNA 8mer (SDS-PAGE, autoradiography)” value in data set [1] is listed as “ModB rapidly RNAylated its known target, ribosomal protein S1 (rS1) without detectable self-RNAylation”. Besides, the “RNAylation assay with single S1 domains” value is “rS1 D1, D3, D4 and D5 domains were modified to a much lesser extent” in [2]; “rS1 D1, D3, D4 and D5 domains were modified to a much lesser extent” in [4]; “rS1 D1, D3, D4 and D5 domains were modified to a much lesser extent” in data set [5]; “For rS1 domains D2 and D6 high RNAylation signals were determined” in data set [6]; “For rS1 domains D2 and D6 high RNAylation signals were determined” in [7]; “rS1 D1, D3, D4 and D5 domains were modified to a much lesser extent” in [9]. For the same protein, the “ADP-ribosylation level of D2” value in data set [3] and in [8] was “the ADP-ribosylation level of D2 is dramatically reduced if R139 is substituted by alanine or lysine” throughout. In addition, the “in vitro RNAylation and ADP-ribosylation (SDS-PAGE)” value in the data set with BSA, P02769 was “control proteins without S1 domain (BSA, NudC inactive quadruple mutant) were not”. The “RNAylation with 5'-NXD-10mer-Cy5 RNAs (Tricine gel, band shift)” value in data set [7] is recorded as “rS1 DII was RNAylated in the presence of 5'-NXD-RNAs by ModB”.
